The source of these data is the supplement of paper PMC10126150.

± gives the standard deviation of the averaged measurements.
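Note: ATP exposure 15 min at 22 °C before imaging.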

In the series the test system is ATP. The series can be described thus: switch fluorescence ratio, 500 uM ATP over buffer (Cy3 cluster intensity, sum of 5 cycles each) (fold (ratio)); higher = stronger signal-on switching upon ATP binding; sequences stand for … in TCGTCGGCAGCGTCAGATGTGTATAAGAGACAGTTTTTTTTTTTTTTTTTTTTTTTTT…TC. To be noted: aptamer strand: ATP DNA aptamer (quencher-CACCTGGGGGAGTATTGCGGAGGAAGG + anchor), 100 nM annealed; ATP concentration: 500 uM. A digest of the protocol:
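The quencher-labelled ATP aptamer, at 100 nM, was annealed to Cy3-labelled switching-strand clusters on a modified Illumina MiSeq flow-cell. The clusters were imaged in selection buffer, then after 15 min with 500 uM ATP at 22 °C, and this buffer/ATP cycle ran five times with NaOH stripping and re-annealing between runs. Per-cluster fluorescence ratios, summed target-cycle over summed buffer-cycle Cy3 intensity, were averaged per switch-domain sequence. Clusters outside 100-1000 RFU were excluded.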
With GGGGTGAAGT, the switch fluorescence ratio was determined as 1.04 ± 0.017. The result for CGTTAATTAG reads 1.02 ± 0.042; that for AATTACCGGT, 0.979 ± 0.045; that for GCTGGGGGGC, 0.988 ± 0.033. In the case of TCTCTGAGGA, the switch fluorescence ratio is 0.985 ± 0.013. On to GTGTTAGCGA, for which the switch fluorescence ratio is 0.997 ± 0.045. The result for ATAAAATCTA reads 1.02 ± 0.061; that for AGTTGGGATT, 1.032 ± 0.01. The result for GGTTTGGCGA reads 0.988 ± 0.044.

With GAGTCTGCGT, the switch fluorescence ratio stood at 1.08 ± 0.026.

ACGATGGCCT: the switch fluorescence ratio is 1 ± 0.014. In the case of TTATCTCATT it was 1 ± 0.028; in that of CGGTTTTATC, 1.01 ± 0.034; in that of GGGGGGGATG, 0.991 ± 0.029.

Regarding TTGGGATTCG, the switch fluorescence ratio came out at 1.01 ± 0.013.

As to CGAAGTGTTT, the switch fluorescence ratio turned out to be 1 ± 0.02.

Consider TTTCAGTTGG, for which the switch fluorescence ratio is 1.02 ± 0.015. For the sequence CTCGATGTGA, the switch fluorescence ratio turned out to be 1.05 ± 0.071.

In the case of ATTATGGTAA, the switch fluorescence ratio stood at 1 ± 0.018. The result for TTTATACGT reads 0.9783 ± 0.0067; that for GTTTCGCAGG, 1.01 ± 0.015. The result for TCCGGGAAGC reads 1.24 ± 0.035; that for TAGGTTATGC, 0.974 ± 0.036; that for CAATGAGCCT, 1.04 ± 0.013. In the case of GGGGGAGATG it was 0.992 ± 0.028; in that of AGAGGGGGAG, 0.979 ± 0.027; in that of CCGTTGGACT, 1.24 ± 0.067. Turning to ATATTGATAG, the switch fluorescence ratio stood at 1 ± 0.0064. Take AAACTTGTGA: the switch fluorescence ratio stood at 1.02 ± 0.024. Take GGGCGGCCGT: the switch fluorescence ratio turned out to be 1.02 ± 0.044. For the sequence CGGTATAGTA, the switch fluorescence ratio came to 0.983 ± 0.032. In the case of GCATAGAGCG it was 1.02 ± 0.065; in that of AAGGTTTCC, 1 ± 0.049. The result for AGTTTTTTTA reads 0.981 ± 0.018; that for CGCCTTTTAT, 0.98204 ± 0.00038; that for TCGTTTGATT, 1.01 ± 0.019. In the case of GTGTTGAGGC it was 0.974 ± 0.05; in that of CGATGGGTTT, 0.969 ± 0.0062; in that of AGTTCATCTT, 0.964 ± 0.015. ATGCAATTTT: the switch fluorescence ratio is 1.017 ± 0.0034. In the case of CGTAACTGTT it was 0.995 ± 0.091. For GCAGCGTTCT, the switch fluorescence ratio is 1.04 ± 0.069.

For AGTGGAGGGG, the switch fluorescence ratio turned out to be 0.969 ± 0.029. The result for TTGGGTAGGG reads 1.01 ± 0.051; that for TGGTGAAAGC, 0.991 ± 0.022; that for TTGGTACATT, 0.99163 ± 8.4e-05.

In the case of AGTTAGGGGA, the switch fluorescence ratio is 1.01 ± 0.038. Regarding TATTAATAGT, the switch fluorescence ratio worked out at 1.01 ± 0.024. In the case of TAAGATTCGT it was 1 ± 0.031; in that of GGTCGAGAGG, 0.971 ± 0.03. The result for GGGTTATGGG reads 1.005 ± 0.008; that for GGTATTAGCT, 1.01 ± 0.013.

On to TAAAGGTTGC, for which the switch fluorescence ratio came out at 0.984 ± 0.02. The result for GGGTGAGTCG reads 1.02 ± 0.037; that for GCTTGGGAAC, 0.993 ± 0.028. On to TTTTTAACTT, for which the switch fluorescence ratio stood at 0.995 ± 0.022. In the case of TTTTTGGAGT it was 1.05 ± 0.07; in that of ATTAAATCGG, 1.01 ± 0.016; in that of TTTTTCTGTT, 0.984 ± 0.039. CTGGCAAGGT: the switch fluorescence ratio stood at 1.09 ± 0.031. As for GGAAGTGGTA, the switch fluorescence ratio amounted to 0.976 ± 0.021.

In the case of AAAAGGGAGG, the switch fluorescence ratio was 1.03 ± 0.019. The result for GAATTGGT reads 1.01 ± 0.012; that for GTGGCGTGCT, 0.976 ± 0.045; that for GCGATCAGAG, 1.04 ± 0.037.

In the case of CGCTTTATGA, the switch fluorescence ratio came out at 1.07 ± 0.024. In the case of GGCCGAAGCG it was 1.07 ± 0.049; in that of ATACGGGGTG, 1.1 ± 0.035. The result for GTTGGATTAG reads 0.993 ± 0.017.

TCTTTTCATT: the switch fluorescence ratio turned out to be 0.994 ± 0.022.

GCGGCTTCTC: the switch fluorescence ratio was 1.018 ± 0.0072. In the case of TTGACCCGAC it was 1.4 ± 0.39; in that of GGGTAAAGTG, 0.9928 ± 0.0032. In the case of ACTGTTGGGG it was 0.999 ± 0.02; in that of TTATATCAAT, 0.9999 ± 0.0041. In the case of TGCTAGGCTA it was 1.02 ± 0.025; in that of TAAGAGGCCT, 1.02 ± 0.031. For TATCTGTGCT, the switch fluorescence ratio was found to be 0.994 ± 0.019. The result for TTTTTCACG reads 1 ± 0.04.
